Assay results as given in paper PMC10477244.

Legend:
[1] = molecular target: T1, SARS-CoV-2 spike RBD (BEI NR-53800) (SARS-CoV-2 Wuhan-Hu-1, UniProt P0DTC2 319-541); assay: ELISA-type bead assay (SA-HRP/TMB); 0.3 uM aptamer
[2] = molecular target: T1, SARS-CoV-2 spike RBD (BEI NR-53800); assay: ELISA-type bead assay (SA-HRP/TMB)
[3] = molecular target: T1, SARS-CoV-2 spike RBD (BEI NR-53800); assay: fluorescence binding, carbon-dot aptamer on Ni-NTA@RBD

Binder	binding result [1]	binding result [2]	further results
aptamer S (Apt@S2) (ssDNA) DNA: GGTATTGAGGGTCGCATCGAAACAGGGCGTGATACGACGCGACGGCGTACTGTGGTGGGATGGCTCTAACTCTCCTCT	binds	–	–
aptamer W (Apt@W2) (ssDNA) DNA: GGTATTGAGGGTCGCATCGACACCGGGAGTGATACGTCGCGAGCACGTACTGTGTTGGGATGGCTCTAACTCTCCTCT	–	binds	–
aptamer T (Apt@T2) (ssDNA) DNA: GGTATTGAGGGTCGCATCGTAATAGCGCATGTTGTGAGGCAGGCGCGAATCAGCTCGTGAGATGGCTCTAACTCTCCTCT	binds	–	–
aptamer R (Apt@R2) (ssDNA) DNA: GGTATTGAGGGTCGCATCGTTACTGGACCAAACAGCACAAAGGACGCCCATAAACCCGGATGGCTCTAACTCTCCTCT	–	–	Kd [3]: 125 nM
aptamer U (Apt@U2) (ssDNA) DNA: GGTATTGAGGGTCGCATCGTAATAGCGCATGTTGTGAGGCGGCGGAGTCATGTCGTGGGATGGCTCTAACTCTCCTCT	–	binds	–
